Source: publication PMC12258621

Columns and labels:
[1] = target: dSpRY (catalytically inactive SpRY Cas9) (Streptococcus pyogenes) (UniProt Q99ZW2); test: EMSA; conditions: 40x plasmid competitor; 100 nM RNP, 10 nM DNA; EMSA: 20 mM HEPES pH 7.5, 100 mM KCl, 10 mM MgCl2, 1% glycerol, 0.5 mM DTT (37 C for plasmid EMSA); footprinting: 20 mM Tris pH 7.9, 24 mM KCl, 5 mM MgCl2 …
[2] = target: dCas9 (catalytically inactive SpyCas9) D10A;H840A (Streptococcus pyogenes) (UniProt Q99ZW2); test: single-molecule AuRBT (kC-I linear, no saturation); conditions: initial binding Kd,init; >1 uM proposed from literature; R-loop forms; EMSA: 20 mM HEPES pH 7.5, 100 mM KCl, 10 mM MgCl2, 1% glycerol, 0.5 mM DTT (37 C for plasmid EMSA); footprinting: 20 mM Tris pH 7.9, 24 mM KCl, 5 mM MgCl2 …
[3] = target: dSpRY (catalytically inactive SpRY Cas9) (Streptococcus pyogenes) (UniProt Q99ZW2); test: single-molecule AuRBT (baseline twist shift, Langmuir fit); conditions: effective Kd for off-target binding on the tether; RNP with sgRNA3; EMSA: 20 mM HEPES pH 7.5, 100 mM KCl, 10 mM MgCl2, 1% glycerol, 0.5 mM DTT (37 C for plasmid EMSA); footprinting: 20 mM Tris pH 7.9, 24 mM KCl, 5 mM MgCl2 …
[4] = target: dSpRY (catalytically inactive SpRY Cas9) (Streptococcus pyogenes) (UniProt Q99ZW2); test: single-molecule AuRBT (hyperbolic fit of kC-I vs [RNP]); conditions: EMSA: 20 mM HEPES pH 7.5, 100 mM KCl, 10 mM MgCl2, 1% glycerol, 0.5 mM DTT (37 C for plasmid EMSA); footprinting: 20 mM Tris pH 7.9, 24 mM KCl, 5 mM MgCl2 …

Row | Sequence | binding signal [1] | Kd [2] | Kd [3] | Kd [4]
1 | GGGACGCAUAAAGAUGAGACAAGUUUUAGAGCUAGAAAUAGCAAGUUAAAAUAAGGCUAGUCCGUUAUCAACUUGAAAAAGUGGCACCGAGUCGGUGCUUCG / CGCTCATGCTGACGCATAAAGATGAGACAATGGCGATTACAGTACGTGCG / CGCACGTACTGTAATCGCCATTGTCTCATCTTTATGCGTCAGCATGAGCG [sgRNA2 + matched target duplex (0-20 bp)] | 2 % bound | – | – | –
2 | GGCUGCGUAUUUCUACUCUGUUGUUUUAGAGCUAGAAAUAGCAAGUUAAAAUAAGGCUAGUCCGUUAUCAACUUGAAAAAGUGGCACCGAGUCGGUGCUUCG / GTCATTGTCGCGAAGTGCAGCGAGATCGCGTTTGTACTCCAAACAGAGTAGAAATACGCAGAGCAGCGATTTCTCGTGTGCAGACA / CGAAGCACCGACTCGGTGCCACTTTTTCAAGTTGATAACGGACTAGCCTTATTTTAACTTGCTATTTCTAGCTCTAAAACAACAGAGTAGAAATACGCAGCC [sgRNA3 + Target1 NGG DNA tether] | – | > 80 nM | 15 nM | 10 nM
3 | GGGACGCAUAAAGAUGAGACAAGUUUUAGAGCUAGAAAUAGCAAGUUAAAAUAAGGCUAGUCCGUUAUCAACUUGAAAAAGUGGCACCGAGUCGGUGCUUCG / CGCTCATGCTGACGCATAAAGATGAGAGTTTGGCGATTACAGTACGTGCG / CGCACGTACTGTAATCGCCATTGTCTCATCTTTATGCGTCAGCATGAGCG [sgRNA2 + target duplex with MM bubble next to PAM (3-20 bp)] | 29 % bound | – | – | –
